# Measured values published in paper PMC4360782, “A new high-performance heterologous fungal expression system based on regulatory elements from the Aspergillus terreus terrein gene cluster”.
# T1: TerR35-138 (Aspergillus terreus SBUG844, UniProt Q0D1P5 35-138)
# T1 sequence: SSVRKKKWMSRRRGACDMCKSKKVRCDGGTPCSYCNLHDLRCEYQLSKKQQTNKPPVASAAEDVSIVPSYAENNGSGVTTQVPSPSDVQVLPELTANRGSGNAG
# T2: TerR43-138 (Aspergillus terreus SBUG844, UniProt Q0D1P5 43-138)
# T2 sequence: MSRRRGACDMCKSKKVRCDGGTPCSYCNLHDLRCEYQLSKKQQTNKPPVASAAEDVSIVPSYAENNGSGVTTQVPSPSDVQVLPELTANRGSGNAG
# What was measured:
# [1] = target: T1, TerR35-138; test: SPR; molar ratio 1.62; SPR (Biacore 2000, SA-coated CM3 chip): 10 mM HEPES pH 7.4, 150 mM NaCl, 0.005% P20, 5 mM beta-mercaptoethanol, 1 uM ZnCl2, 25 C; protein 12.5-6400 nM; 1:1 model with mass transport; settings: protein: recombinant; (pET-29a; theoretical mass 11.35 kDa); label: biotin on one strand; 18 bp duplex
# [2] = target: T2, TerR43-138; test: SPR; molar ratio 1.04; SPR (Biacore 2000, SA-coated CM3 chip): 10 mM HEPES pH 7.4, 150 mM NaCl, 0.005% P20, 5 mM beta-mercaptoethanol, 1 uM ZnCl2, 25 C; protein 12.5-6400 nM; 1:1 model with mass transport; settings: protein: recombinant; (pET-29a; mass used 10218 Da); label: biotin on one strand; 18 bp duplex
# [3] = target: T1, TerR35-138; test: SPR; molar ratio 1.51; SPR (Biacore 2000, SA-coated CM3 chip): 10 mM HEPES pH 7.4, 150 mM NaCl, 0.005% P20, 5 mM beta-mercaptoethanol, 1 uM ZnCl2, 25 C; protein 12.5-6400 nM; 1:1 model with mass transport; settings: protein: recombinant; (pET-29a; theoretical mass 11.35 kDa); label: biotin on one strand; 18 bp duplex
# [4] = target: T2, TerR43-138; test: SPR; molar ratio 0.92; SPR (Biacore 2000, SA-coated CM3 chip): 10 mM HEPES pH 7.4, 150 mM NaCl, 0.005% P20, 5 mM beta-mercaptoethanol, 1 uM ZnCl2, 25 C; protein 12.5-6400 nM; 1:1 model with mass transport; settings: protein: recombinant; (pET-29a; mass used 10218 Da); label: biotin on one strand; 18 bp duplex
# [5] = target: T1, TerR35-138; test: SPR; molar ratio 1.74; SPR (Biacore 2000, SA-coated CM3 chip): 10 mM HEPES pH 7.4, 150 mM NaCl, 0.005% P20, 5 mM beta-mercaptoethanol, 1 uM ZnCl2, 25 C; protein 12.5-6400 nM; 1:1 model with mass transport; settings: protein: recombinant; (pET-29a; theoretical mass 11.35 kDa); label: biotin on one strand; 18 bp duplex
# [6] = target: T1, TerR35-138; test: SPR; molar ratio 1.93; SPR (Biacore 2000, SA-coated CM3 chip): 10 mM HEPES pH 7.4, 150 mM NaCl, 0.005% P20, 5 mM beta-mercaptoethanol, 1 uM ZnCl2, 25 C; protein 12.5-6400 nM; 1:1 model with mass transport; settings: protein: recombinant; (pET-29a; theoretical mass 11.35 kDa); label: biotin on one strand; 18 bp duplex
# [7] = target: T1, TerR35-138; test: SPR; molar ratio 1.19; SPR (Biacore 2000, SA-coated CM3 chip): 10 mM HEPES pH 7.4, 150 mM NaCl, 0.005% P20, 5 mM beta-mercaptoethanol, 1 uM ZnCl2, 25 C; protein 12.5-6400 nM; 1:1 model with mass transport; settings: protein: recombinant; (pET-29a; theoretical mass 11.35 kDa); label: biotin on one strand; 18 bp duplex
# [8] = target: T2, TerR43-138; test: SPR; molar ratio 0.88; SPR (Biacore 2000, SA-coated CM3 chip): 10 mM HEPES pH 7.4, 150 mM NaCl, 0.005% P20, 5 mM beta-mercaptoethanol, 1 uM ZnCl2, 25 C; protein 12.5-6400 nM; 1:1 model with mass transport; settings: protein: recombinant; (pET-29a; mass used 10218 Da); label: biotin on one strand; 18 bp duplex
# [9] = target: T1, TerR35-138; test: SPR; molar ratio 1.38; SPR (Biacore 2000, SA-coated CM3 chip): 10 mM HEPES pH 7.4, 150 mM NaCl, 0.005% P20, 5 mM beta-mercaptoethanol, 1 uM ZnCl2, 25 C; protein 12.5-6400 nM; 1:1 model with mass transport; settings: protein: recombinant; (pET-29a; theoretical mass 11.35 kDa); label: biotin on one strand; 18 bp duplex
# [10] = target: T2, TerR43-138; test: SPR; molar ratio 0.95; SPR (Biacore 2000, SA-coated CM3 chip): 10 mM HEPES pH 7.4, 150 mM NaCl, 0.005% P20, 5 mM beta-mercaptoethanol, 1 uM ZnCl2, 25 C; protein 12.5-6400 nM; 1:1 model with mass transport; settings: protein: recombinant; (pET-29a; mass used 10218 Da); label: biotin on one strand; 18 bp duplex
# [11] = target: T1, TerR35-138; test: SPR; molar ratio 1.14; SPR (Biacore 2000, SA-coated CM3 chip): 10 mM HEPES pH 7.4, 150 mM NaCl, 0.005% P20, 5 mM beta-mercaptoethanol, 1 uM ZnCl2, 25 C; protein 12.5-6400 nM; 1:1 model with mass transport; settings: protein: recombinant; (pET-29a; theoretical mass 11.35 kDa); label: biotin on one strand; 18 bp duplex
# [12] = target: T2, TerR43-138; test: SPR; molar ratio 0.85; SPR (Biacore 2000, SA-coated CM3 chip): 10 mM HEPES pH 7.4, 150 mM NaCl, 0.005% P20, 5 mM beta-mercaptoethanol, 1 uM ZnCl2, 25 C; protein 12.5-6400 nM; 1:1 model with mass transport; settings: protein: recombinant; (pET-29a; mass used 10218 Da); label: biotin on one strand; 18 bp duplex
# [13] = target: T1, TerR35-138; test: SPR; molar ratio 1.12; SPR (Biacore 2000, SA-coated CM3 chip): 10 mM HEPES pH 7.4, 150 mM NaCl, 0.005% P20, 5 mM beta-mercaptoethanol, 1 uM ZnCl2, 25 C; protein 12.5-6400 nM; 1:1 model with mass transport; settings: protein: recombinant; (pET-29a; theoretical mass 11.35 kDa); label: biotin on one strand; 18 bp duplex
# [14] = target: T1, TerR35-138; test: SPR; molar ratio 0.92; SPR (Biacore 2000, SA-coated CM3 chip): 10 mM HEPES pH 7.4, 150 mM NaCl, 0.005% P20, 5 mM beta-mercaptoethanol, 1 uM ZnCl2, 25 C; protein 12.5-6400 nM; 1:1 model with mass transport; settings: protein: recombinant; (pET-29a; theoretical mass 11.35 kDa); label: biotin on one strand; 18 bp duplex
# [15] = target: T1, TerR35-138; test: SPR; molar ratio 1.87; SPR (Biacore 2000, SA-coated CM3 chip): 10 mM HEPES pH 7.4, 150 mM NaCl, 0.005% P20, 5 mM beta-mercaptoethanol, 1 uM ZnCl2, 25 C; protein 12.5-6400 nM; 1:1 model with mass transport; settings: protein: recombinant; (pET-29a; theoretical mass 11.35 kDa); label: biotin on one strand; 18 bp duplex
# [16] = target: T1, TerR35-138; test: SPR; molar ratio 0.95; SPR (Biacore 2000, SA-coated CM3 chip): 10 mM HEPES pH 7.4, 150 mM NaCl, 0.005% P20, 5 mM beta-mercaptoethanol, 1 uM ZnCl2, 25 C; protein 12.5-6400 nM; 1:1 model with mass transport; settings: protein: recombinant; (pET-29a; theoretical mass 11.35 kDa); label: biotin on one strand; 18 bp duplex
# [17] = target: T2, TerR43-138; test: SPR; molar ratio 1.06; SPR (Biacore 2000, SA-coated CM3 chip): 10 mM HEPES pH 7.4, 150 mM NaCl, 0.005% P20, 5 mM beta-mercaptoethanol, 1 uM ZnCl2, 25 C; protein 12.5-6400 nM; 1:1 model with mass transport; settings: protein: recombinant; (pET-29a; mass used 10218 Da); label: biotin on one strand; 18 bp duplex
# [18] = target: T1, TerR35-138; test: SPR; molar ratio 1.17; SPR (Biacore 2000, SA-coated CM3 chip): 10 mM HEPES pH 7.4, 150 mM NaCl, 0.005% P20, 5 mM beta-mercaptoethanol, 1 uM ZnCl2, 25 C; protein 12.5-6400 nM; 1:1 model with mass transport; settings: protein: recombinant; (pET-29a; theoretical mass 11.35 kDa); label: biotin on one strand; 18 bp duplex
# [19] = target: T1, TerR35-138; test: SPR; molar ratio 1.25; SPR (Biacore 2000, SA-coated CM3 chip): 10 mM HEPES pH 7.4, 150 mM NaCl, 0.005% P20, 5 mM beta-mercaptoethanol, 1 uM ZnCl2, 25 C; protein 12.5-6400 nM; 1:1 model with mass transport; settings: protein: recombinant; (pET-29a; theoretical mass 11.35 kDa); label: biotin on one strand; 18 bp duplex
# [20] = target: T2, TerR43-138; test: SPR; molar ratio 0.91; SPR (Biacore 2000, SA-coated CM3 chip): 10 mM HEPES pH 7.4, 150 mM NaCl, 0.005% P20, 5 mM beta-mercaptoethanol, 1 uM ZnCl2, 25 C; protein 12.5-6400 nM; 1:1 model with mass transport; settings: protein: recombinant; (pET-29a; mass used 10218 Da); label: biotin on one strand; 18 bp duplex
binder,measurement,setting,value
BS2 (dsDNA) DNA 1: TTATCGGACTTTCGGATT DNA 2: AATCCGAAAGTCCGATAA,Kd,[1],536 ± 3 nM
same,Kd,[2],3730 ± 30 nM
BS9 (dsDNA) DNA 1: GCTTCGGTAATTCGGTAA DNA 2: TTACCGAATTACCGAAGC,Kd,[3],41 ± 0.4 nM
same,Kd,[4],820 ± 4 nM
BS3 (dsDNA) DNA 1: GAGACGGAAACTCGGGTT DNA 2: AACCCGAGTTTCCGTCTC,Kd,[5],676 ± 3 nM
BS2m1 (5'-CGG to CAA) (dsDNA) DNA 1: TTATCAAACTTTCGGATT DNA 2: AATCCGAAAGTTTGATAA,Kd,[6],5780 ± 60 nM
BS4m2 (C directly after 5'-CGG to G) (dsDNA) DNA 1: TCTTCGGGAATACGGACT DNA 2: AGTCCGTATTCCCGAAGA,Kd,[7],155 ± 1 nM
same,Kd,[8],1370 ± 50 nM
BS4m1 (TT before 5'-CGG to GG) (dsDNA) DNA 1: TGGGCGGCAATACGGACT DNA 2: AGTCCGTATTGCCGCCCA,Kd,[9],429 ± 2 nM
same,Kd,[10],9300 ± 1000 nM
BS4 (dsDNA) DNA 1: TCTTCGGCAATACGGACT DNA 2: AGTCCGTATTGCCGAAGA,Kd,[11],65.6 ± 0.6 nM
same,Kd,[8],1070 ± 60 nM
BS6 (dsDNA) DNA 1: CTCTCGGAAACTCGGAAA DNA 2: TTTCCGAGTTTCCGAGAG,Kd,[1],150 ± 1 nM
same,Kd,[12],2050 ± 90 nM
BS1 (dsDNA) DNA 1: GAGTCGGCATTACGGCGG DNA 2: CCGCCGTAATGCCGACTC,Kd,[13],527 ± 3 nM
BS7m (second CGG half-site mutated) (dsDNA) DNA 1: ACTTCGGCTATCCAATTA DNA 2: TAATTGGATAGCCGAAGT,Kd,[14],25.3 ± 0.2 nM
BS5 (dsDNA) DNA 1: GGGGCGGCTCCTCGGTAC DNA 2: GTACCGAGGAGCCGCCCC,Kd,[15],1530 ± 60 nM
BS2m2 (3'-CGG to CAA) (dsDNA) DNA 1: TTATCGGACTTTCAAATT DNA 2: AATTTGAAAGTCCGATAA,Kd,[16],363 ± 2 nM
BS8 (dsDNA) DNA 1: CGGGCGGTTAGGCGGCAT DNA 2: ATGCCGCCTAACCGCCCG,Kd,[17],17200 ± 500 nM
same,Kd,[18],286 ± 2 nM
BS7 (dsDNA) DNA 1: ACTTCGGCTATCCGGTTA DNA 2: TAACCGGATAGCCGAAGT,Kd,[19],26.5 ± 0.3 nM
same,Kd,[20],591 ± 2 nM
